Data: the supplement of paper PMC12764529
± gives the half width of the 95% confidence interval.

Assays:
[1] = folding stability dG unfold from trypsin proteolysis; higher = more stable
Procedure, shortened: (§1)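 Only designs with AlphaFold2 dimer inter-PAE above 15 were retained; each was a mini-protein under 80 residues with no cysteine, in a PA-tagged cDNA display construct. After digestion with trypsin and chymotrypsin and sequencing, K50 was inferred by Bayesian fitting of counts, and unfolding free energy was derived per protease or combined against a sequence-predicted unfolded-state K50 and a shared folded-state K50.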

[2] = folding stability dG unfold (combined trypsin and chymotrypsin); higher = more stable
Procedure, shortened: as §1

[3] = folding stability dG unfold from chymotrypsin proteolysis; higher = more stable
Procedure, shortened: as §1

Sequence | folding stability dG unfold [1] | folding stability dG unfold [2] | folding stability dG unfold [3]
SAGGSAGGSAGMTVEDLEFDIPFESEEEAIEYLKKKLPKDYTIKPIGFEPENGKLKVKVTKKSAGGSAGGSA [r18_429_JUSTAS] | 0.485 ± 0.19 kcal/mol | 0.8 ± 0.3 kcal/mol | 0.789 ± 0.15 kcal/mol
SAGGSAGGSAGMTVTETPVLVRYPEDGSVRPFTLTTSPEPGTLTLDLPPAEWPPLEITPPGSAGGSAGGSAG [r3_454_JUSTAS] | -0.0964 ± 0.12 kcal/mol | -0.324 ± 0.17 kcal/mol | -0.486 ± 0.33 kcal/mol
SAGGSAGGSAGMVEVEVRKTENGNYVVTTTTVTTSPVTTPNPYTRTVTTVTTSTTVIPATSAGGSAGGSAGG [r11_403_JUSTAS] | -0.758 ± 0.3 kcal/mol | -0.187 ± 0.39 kcal/mol | -0.101 ± 0.23 kcal/mol
SAGGSAGGSAGMVEVYSEPDGTVIVKETVPGKVVITVLEKVPGGPGLNPVTTTVVPPGLLSAGGSAGGSAGG [r11_844_JUSTAS] | 1.4 ± 0.037 kcal/mol | 1.11 ± 0.043 kcal/mol | 0.786 ± 0.058 kcal/mol
SAGGSAGGSAGMVKSLSELLAENPDLSIEEIKAKLEKEGYKVEVKKEGDTPVVYIKKGKKSAGGSAGGSAGG [r11_707_JUSTAS] | 1.43 ± 0.04 kcal/mol | 1.12 ± 0.16 kcal/mol | 0.765 ± 0.14 kcal/mol
SAGGSAGGSAGMVLPVTKVYRDGDTVYLYFDGLGLIAEIRIDDDKITLPSVYRVHPDEDLSAGGSAGGSAGG [r17_30_TrMRF] | 0.835 ± 0.038 kcal/mol | 0.691 ± 0.095 kcal/mol | 0.438 ± 0.11 kcal/mol
SAGGSAGGSAGMVLVFDKKTGELYLYDKNGKLVAKFKVEGAEEVVVLVFDPDTNELKLVPSAGGSAGGSAGG [r17_413_TrROS_Hall] | 2.49 ± 0.049 kcal/mol | 3.4 ± 0.065 kcal/mol | 3.68 ± 0.037 kcal/mol
SAGGSAGGSAGMVNTTLTTAPDGTRIVTTTFPENPDLVLRTTYAPDGSVLETELVPSSQLSAGGSAGGSAGG [r11_909_JUSTAS] | 1.98 ± 0.045 kcal/mol | 1.52 ± 0.026 kcal/mol | 1.04 ± 0.023 kcal/mol
SAGGSAGGSAGMVVETSKNPPTSDTVVTTLVPSPNSTTVTTTIVSPDPNTIKETTTTPTPSAGGSAGGSAGG [r11_100_JUSTAS] | 2.41 ± 0.064 kcal/mol | 1.8 ± 0.034 kcal/mol | 1.23 ± 0.019 kcal/mol
SAGGSAGGSAGMVVKVKEHPITITKLPDGSWRLTHPASGKVILLPGVDEATAKAIAEELTSAGGSAGGSAGG [r11_1085_JUSTAS] | 1.26 ± 0.015 kcal/mol | 1.58 ± 0.054 kcal/mol | 1.76 ± 0.027 kcal/mol
SAGGSAGGSAGMVVTINDPKKAKKIDENSVITIPDGKKYKVVKVEVDEKNGYWTLTIEPLSAGGSAGGSAGG [r11_316_JUSTAS] | 1.09 ± 0.055 kcal/mol | 2.18 ± 0.15 kcal/mol | 2.55 ± 0.051 kcal/mol
SAGGSAGGSAGMYRVEIEIEMSKEQLEALKKNKNLKPGQKIDLKVKIKIEPVKLDKNGKLSAGGSAGGSAGG [r17_194_TrROS_Hall] | 1.57 ± 0.051 kcal/mol | 2.32 ± 0.13 kcal/mol | 2.43 ± 0.036 kcal/mol
SAGGSAGGSAGNIMILNKDGKIIAEIKIEEKYEIDKDGKIKKTKKIEIKIVPVPPGEKIKSAGGSAGGSAGG [r17_480_TrROS_Hall] | 0.867 ± 0.056 kcal/mol | 1.25 ± 0.29 kcal/mol | 1.94 ± 0.11 kcal/mol
SAGGSAGGSAGNKKAEEIKKILEEKGFEVVSVKVYKPKGNKPVVKIEVKAKNGKKFTILASAGGSAGGSAGG [r11_780_TrMRF] | 2.96 ± 0.2 kcal/mol | 3.22 ± 0.2 kcal/mol | 3.28 ± 0.039 kcal/mol
SAGGSAGGSAGNKYLIKVKKKNGNKSEELEIEVEDNPEIAEKIAEELKKKGNIVSVEIKKASAGGSAGGSAG [r3_310_TrMRF] | 0.761 ± 0.1 kcal/mol | 0.66 ± 0.23 kcal/mol | 0.403 ± 0.21 kcal/mol
SAGGSAGGSAGNTIEIEINGKPIYVEFEPLPEGMVKVKIYFPDGKKEEITLPANDPIKIGSAGGSAGGSAGG [r11_525_TrROS] | 1.53 ± 0.068 kcal/mol | 1.58 ± 0.13 kcal/mol | 1.6 ± 0.045 kcal/mol
SAGGSAGGSAGNVTLTRVEVLEGEDDRPLIKATFSFEPGPQVLVFEGDNPDDIEIDVDVGSAGGSAGGSAGG [r17_64_TrMRF] | -0.45 ± 0.096 kcal/mol | -0.0491 ± 0.13 kcal/mol | 0.0818 ± 0.12 kcal/mol
SAGGSAGGSAGNWIIRIRWPGKSIMFVLPEGMNVDEIATNIQDEFNYPIDIEVIPPGQPISAGGSAGGSAGG [r11_805_TrROS] | 2.15 ± 0.071 kcal/mol | 2.5 ± 0.15 kcal/mol | 2.65 ± 0.062 kcal/mol

Sequence | folding stability dG unfold [1] | folding stability dG unfold [2] | folding stability dG unfold [3]
SAGGSAGGSAGNWRWIMIPIKVPPGLEAGEEIEIKIPNGVEVWYHYNEPGTIWMMIRVPDSAGGSAGGSAGG [r11_362_TrROS] | 2.69 ± 0.069 kcal/mol | 2.88 ± 0.085 kcal/mol | 2.96 ± 0.037 kcal/mol
SAGGSAGGSAGPEKMRIEDIEHERNPEDGRHTVKIKIPNGPDITFQFTDPEDLDDFKLEVSAGGSAGGSAGG [r11_711_TrROS] | -0.274 ± 0.079 kcal/mol | 0.0382 ± 0.22 kcal/mol | 0.334 ± 0.075 kcal/mol
SAGGSAGGSAGPEKTVTLRVKITNADGQEQTLELTAETEEEALAALRALLPPGAKVEIEPSAGGSAGGSAGG [r11_671_TrROS_Hall] | 1.99 ± 0.067 kcal/mol | 3.35 ± 0.087 kcal/mol | 3.66 ± 0.07 kcal/mol
SAGGSAGGSAGPIKITSVEYDPNSGTIIARFPDGVVIRIKMNPDGNFKIDEIYPIKPGDLSAGGSAGGSAGG [r17_61_TrROS] | 2.37 ± 0.088 kcal/mol | 2.02 ± 0.14 kcal/mol | 1.57 ± 0.08 kcal/mol
SAGGSAGGSAGPKIEIEKLPGPYYLLKIYLPDENGNPIEALVVATSPEEAVEKLKELLKSSAGGSAGGSAGG [r11_819_TrMRF] | 3.21 ± 0.14 kcal/mol | 3.18 ± 0.098 kcal/mol | 3.15 ± 0.043 kcal/mol
SAGGSAGGSAGPMYIITHTSPNEPIEFIFPPDDAEEFLKKLKLPPNMNIKVEPIDPDDMKSAGGSAGGSAGG [r17_395_TrROS] | 0.0355 ± 0.07 kcal/mol | 0.367 ± 0.18 kcal/mol | 0.715 ± 0.21 kcal/mol
SAGGSAGGSAGPNMVPIGKLTIEIRNPDNGNPLRIRIDLYVVPAPDGWMIALRILDIEPPSAGGSAGGSAGG [r11_113_TrROS] | 2.45 ± 0.13 kcal/mol | 3.7 ± 0.26 kcal/mol | 4.15 ± 0.21 kcal/mol
SAGGSAGGSAGPPDFQIYVDIETQRNPGNGRYYVTMKIYIGNKPIVEITIPAGEPLKIKFSAGGSAGGSAGG [r17_281_TrROS] | 2.66 ± 0.12 kcal/mol | 3.4 ± 0.14 kcal/mol | 3.9 ± 0.045 kcal/mol
SAGGSAGGSAGPPDIEVNYYRYEGYYRVNISFPNNRPIEIMMKGPGMPAEDFVKKLLDQLSAGGSAGGSAGG [r11_313_TrROS] | 1.84 ± 0.1 kcal/mol | 2.1 ± 0.14 kcal/mol | 2.35 ± 0.059 kcal/mol
SAGGSAGGSAGPPKPIWFRVKEVEVNPDNGTLEIKFENGQTITIPPENIENLPPGDWIRISAGGSAGGSAGG [r11_124_TrROS] | 0.838 ± 0.029 kcal/mol | 1.33 ± 0.058 kcal/mol | 1.53 ± 0.061 kcal/mol
SAGGSAGGSAGPPNIKMEPETRTYVLPGGWAIRVSIMKIKPPDGKPLIMAMEEIIPPDDPSAGGSAGGSAGG [r17_312_TrROS] | 0.958 ± 0.1 kcal/mol | 1.27 ± 0.31 kcal/mol | 1.27 ± 0.23 kcal/mol
SAGGSAGGSAGPPPFKLKIDEMEMADDMFRIKLTIEDPNGEVTVDYWIGNQPFKLRIKPDSAGGSAGGSAGG [r17_45_TrROS] | 1.53 ± 0.039 kcal/mol | 2.12 ± 0.17 kcal/mol | 2.39 ± 0.17 kcal/mol
SAGGSAGGSAGPTYKIKIYFEDTGVEAEVEINEDGSLTITVPKELLPPGAKVKVEIVKVPSAGGSAGGSAGG [r17_392_TrROS_Hall] | 1.28 ± 0.057 kcal/mol | 1.57 ± 0.26 kcal/mol | 1.66 ± 0.098 kcal/mol
SAGGSAGGSAGPVLKIKVEVKLEKKYDKNGKLVEEKLEVKVEIELLEPAPPASDEELKKKSAGGSAGGSAGG [r11_131_TrROS_Hall] | 0.29 ± 0.24 kcal/mol | 1.6 ± 0.39 kcal/mol | 1.69 ± 0.2 kcal/mol
SAGGSAGGSAGPVRTIEILFPFDPGESLEFEIRIPGNGRKIKVSIEPYPNGWMRIKITVYSAGGSAGGSAGG [r17_131_TrROS] | 4.75 ± 0.21 kcal/mol | 5.69 ± 0.21 kcal/mol | 5.68 ± 0.26 kcal/mol
SAGGSAGGSAGPWVWIIMIHMEIERVTVEVRPDPDGKWEYKLEITIKIEIHIIPLPPGATSAGGSAGGSAGG [r11_24_TrROS] | 3.55 ± 0.15 kcal/mol | 5.26 ± 0.17 kcal/mol | 5.37 ± 0.11 kcal/mol
SAGGSAGGSAGPYKVKVTLKNGEVLEFTIPEEFKDLKEVKIDLPEELKENIVKVEIEPLESAGGSAGGSAGG [r17_528_TrMRF] | 2.56 ± 0.1 kcal/mol | 2.95 ± 0.059 kcal/mol | 3.199 ± 0.02 kcal/mol
SAGGSAGGSAGQTLLVEVNGQLAEITIDPDVPGQITITLPNGEQITLEVRLEPPPPPEEESAGGSAGGSAGG [r17_85_TrROS_Hall] | 2.08 ± 0.3 kcal/mol | 1.6 ± 0.16 kcal/mol | 1.39 ± 0.17 kcal/mol
